# Source: patent US20200181195A1 (NEC, published 2020)
# B1: SVPVTRPAL (Seq. ID No. 2) (peptide)
# peptide: SVPVTRPAL
# notes: Only the start position in MUC1 is printed; The end of the range follows from the length of 9 residues
# B2: FLGLSNIKF (Seq. ID No. 1) (peptide)
# peptide: FLGLSNIKF
# notes: as for B1
# B3: LQRDISEMF (Seq. ID No. 6) (peptide)
# peptide: LQRDISEMF
# notes: as for B1
# B4: SFFFLSFHI (Seq. ID No. 8) (peptide)
# peptide: SFFFLSFHI
# notes: as for B1
# B5: STGVSFFFL (Seq. ID No. 10) (peptide)
# peptide: STGVSFFFL
# notes: as for B1
# B6: GVPGWGIAL (Seq. ID No. 3) (peptide)
# peptide: GVPGWGIAL
# notes: as for B1
# B7: AFREGTINV (Seq. ID No. 4) (peptide)
# peptide: AFREGTINV
# notes: as for B1
# B8: HHSDTPTTL (Seq. ID No. 7) (peptide)
# peptide: HHSDTPTTL
# notes: as for B1
# B9: TLAFREGTI (Seq. ID No. 9) (peptide)
# peptide: TLAFREGTI
# notes: as for B1
# B10: AASRYNLTI (Seq. ID No. 5) (peptide)
# peptide: AASRYNLTI
# notes: as for B1
# B11: GQDVTSVPV (Seq. ID No. 11) (peptide)
# peptide: GQDVTSVPV
# notes: as for B1
# B12: FSAQSGAGV (Seq. ID No. 12) (peptide)
# peptide: FSAQSGAGV
# notes: as for B1
# Target: T1, HLA-A*24:02 molecule (HLA-A*24:02 gene product) (human)
# T1 construct: MHC class I on acid-stripped C1R-A24 cells; The endogenous peptide and b2m were removed, then purified b2m was added
# Assay: flow cytometry, acid-stripped C1R-A24 cells + purified b2m, peptide dilution series, 17A12 staining
# Method: First, C1R-A24 cells were exposed to acidic conditions at a pH of 3.3 for 30 seconds, and thus an endogenous peptide that originally binds to the HLA-A*24:02 molecule, and a light chain β2m, which is associated with HLA class-I molecules in common, were dissociated and removed. After neutralization, a purified β2m was added to C1R-A24 cells, and the obtained product was added to a series of dilutions of the peptide and incubated on ice for 4 hours. Staining was carried out using a fluorescently labeled monoclonal antibody 17A12, which recognizes association (MHC-pep) of the three members, that is, a HLA-A*24:02 molecule, a peptide, and β2m, which had reassociated during the incubation.
# Thereafter, the MHC-pep count per C1R-A24 cell (proportional to the intensity of fluorescence of the above-mentioned fluorescent antibody) was quantitatively measured using a fluorescence-activated cell sorter FACScan (Becton-Dickinson). A binding-dissociation constant Kd value between the HLA-A*24:02 molecule and the peptide was calculated from the average intensity of fluorescence per cell using a method that was reported in a paper (Udaka et al., Immunogenetics, 51, 816-828, 2000) by the inventors of the present invention.
row,Data of binding experiment (log Kd),Binder
1,-7.24,B1
2,-7.07,B2
3,-6.65,B3
4,-7.07,B4
5,-5.17,B5
6,-5.93,B6
7,-5.83,B7
8,-5.87,B8
9,-5.97,B9
10,-6.15,B10

# Target: T2, HLA-A*02:01 molecule (HLA-A*02:01 gene product) (human)
# T2 construct: MHC class I on T2 cells with added purified b2m
# Assay: flow cytometry, T2 cells + purified b2m, peptide dilution series, BB7.2 staining
# Method: (§1) Thereafter, the amount of fluorescence per cell was measured using a flow cytometer, and a dissociation constant Kd value was calculated using a method that was reported in a paper (Udaka et al., Immunogenetics, 51, 816-828, 2000) by the inventors of the present invention.
row,Data of binding experiment (log Kd),Binder
1,-3.9,B1
2,-6.44,B11
3,-5.39,B2
4,-5.12,B5
5,-4.55,B6
6,-4.74,B12
7,-4.81,B10

# Target: T3, HLA-A*02:06 molecule (HLA-A*02:06 gene product) (human)
# T3 construct: whole, on cells; MHC class I on RA2.6 cells (mouse RMAS transfected with HLA-A*02:06); The light chain is not described
# Assay: flow cytometry, RA2.6 cells (RMAS + HLA-A*02:06), peptide dilution series, BB7.2 staining
# Method: Thereafter, the cells were cultured at 35° C. for 4 hours. […] A fluorescently labeled monoclonal antibody BB7.2, which specifically recognizes a peptide-binding HLA-A*02:06 molecule, was added thereto, incubation was carried out on ice for 20 minutes, and thus the cells were stained.
# as §1
row,Data of binding experiment (log Kd),Binder
1,-5.63,B1
2,-6.35,B11
3,-4.39,B2
4,-4.26,B3
5,-3.98,B4
6,-5.21,B5
7,-5.76,B6
8,-5.66,B12
9,-3.09,B9
10,-3.82,B10
